Measured values reported in publication PMC3017119, “Structural Basis for the Recognition of Cellular mRNA Export Factor REF by Herpes Viral Proteins HSV-1 ICP27 and HVS ORF57” (PLoS Pathogens, 2011).

B1: ICP27^1–138 (recombinant, for NMR) (domain or fragment)
chain: MATDIDMLIDLGLDLSDSDLDEDPPEPAESRRDDLESDSSGECSSSDEDMEDPHGEDGPEPILDAARPAVRPSRPEDPGVPSTQTPRPTERQGPNDPQPAPHSVWSRLGARRPSCSPEQHGGKVARLQPPPTKAQPAR
notes: HSV-1 ICP27, residues 1-138
B5: REF^54–155 (recombinant, for NMR) (domain or fragment)
chain: not shown
notes: 15N- or 13C/15N-labelled or unlabelled, by experiment; also called Δ53N
B9: HVS ORF57^8–120 (recombinant, for NMR) (domain or fragment)
chain: GISSDDDFDSSDSSSDEEESDTSPQIMKSDVTMASPPSTPEPSPDVSASTSNLKRERQRSPITWEHQSPLSRVYRSPSPMRFGKRPRISSNSTSRSCKTSWADRVREAAAQRR

Experiments:
Details in all cases: both partners purified
[1] = target: REF^1–155 (recombinant, for NMR) (murine, UniProt Q9JJW6 1-155); assay: NMR titration
[2] = target: B5; assay: NMR titration; […]; 30°C; […], pH 6.2
[3] = target: B1; assay: NMR titration
[4] = target: B9; assay: NMR titration; […]; 30°C; […], pH 6.2
ICP27^103–112 W105A = target: T1, ICP27^103–112 W105A (Herpes simplex virus 1, W105A (stands in the printed letters)); assay: NMR titration; […]; 30°C; […], pH 6.2
T1 construct: also called mutant peptide W105A; source: synthetic peptide (Peptide Protein Research Ltd)

ICP27^103–112 R107A = target: T2, ICP27^103–112 R107A (Herpes simplex virus 1, R107A (stands in the printed letters)); assay: NMR titration; […]; 30°C; […], pH 6.2
T2 construct: source: synthetic peptide (Peptide Protein Research Ltd)

ICP27^103–112 L108A = target: T3, ICP27^103–112 L108A (Herpes simplex virus 1, L108A (stands in the printed letters)); assay: NMR titration; […]; 30°C; […], pH 6.2
T3 construct: source: synthetic peptide (Peptide Protein Research Ltd)

HVS ORF57^103–120 W108A = target: T4, HVS ORF57^103–120 W108A (Herpesvirus Saimiri, W108A (stands in the printed letters)); assay: NMR titration; […]; 30°C; […], pH 6.2
T4 construct: source: synthetic peptide (Peptide Protein Research Ltd)

HVS ORF57^103–120 R111A = target: T5, HVS ORF57^103–120 R111A (Herpesvirus Saimiri, R111A (stands in the printed letters)); assay: NMR titration; […]; 30°C; […], pH 6.2
T5 construct: source: synthetic peptide (Peptide Protein Research Ltd)

HVS ORF57^103–120 V112A = target: T6, HVS ORF57^103–120 V112A (Herpesvirus Saimiri, V112A (stands in the printed letters)); assay: NMR titration; […]; 30°C; […], pH 6.2
T6 construct: source: synthetic peptide (Peptide Protein Research Ltd)

B1: binds [1].

B2: HVS ORF57^105–115 (peptide)
peptide: KTSWADRVREA
notes: also called WT HVS-ORF57^105–115; WT-ORF57^105–115; source: synthetic peptide (Peptide Protein Research Ltd)
In the case of B2, the Kd [2] is reported as > 1000 µM.

B3: VZV ORF4^108–119 (peptide)
peptide: TGYARIERGHRR
notes: also called VZV-ORF4^108–119 peptide; source: synthetic peptide (Peptide Protein Research Ltd)
B3 was tested, and the Kd [2] was > 1000 µM.

B4: HVS ORF57^103–120 (peptide)
peptide: SCKTSWADRVREAAAQRR
notes: also called WT HVS-ORF57^103–120; source: synthetic peptide (Peptide Protein Research Ltd)
For B4, the Kd [2] was 45 ± 15 µM.

With B5 the binding result [3] was “binds”, the Kd [4] was 78 ± 12 µM and the Kd (ICP27^103–112 W105A) was 550 ± 210 µM. For the same binder, the Kd (ICP27^103–112 R107A) was > 10000 µM, the Kd (ICP27^103–112 L108A) was > 5000 µM and the Kd (HVS ORF57^103–120 W108A) was > 7500 µM. It also gave a Kd (HVS ORF57^103–120 R111A) of 254 ± 50 µM and a Kd (HVS ORF57^103–120 V112A) of 156 ± 32 µM.

B6: ICP27^103–112 (peptide)
peptide: SVWSRLGARR
notes: HSV-1 ICP27, residues 103-112; the dash in the printed line is an alignment gap; also called WT ICP27^103–112 peptide; source: synthetic peptide (Peptide Protein Research Ltd)
For B6, the Kd [2] was 99 ± 30 µM.

B7: ICP27^103–138 (peptide)
chain: GPLGSVWSRLGARRPSCSPEQHGGKVARLQPPPTKAQPAR
notes: remainder of the PreScission protease cleavage site; HSV-1 ICP27, residues 103-138; also called WT-ICP27^103–138; ICP27^103–138 WT peptide; source: expressed as GST-fusion from pGEX-6P-1, cleaved by PreScission protease on GSH resin, purified (Sephacryl S-100 HR); not shown: GST, N-terminal, cleaved
Binder B7 has a Kd [2] of 28 ± 8.7 µM.

B8: ICP27^103–138 S114E (peptide)
chain: GPLGSVWSRLGARRPECSPEQHGGKVARLQPPPTKAQPAR
notes: remainder of the PreScission protease cleavage site; HSV-1 ICP27, residues 103-138 with S114E (mimic of phosphoserine 114); source: expressed as GST-fusion from pGEX-6P-1, cleaved by PreScission protease on GSH resin, purified (Sephacryl S-100 HR); not shown: GST, N-terminal, cleaved
B8 showed a Kd [2] of 17 ± 7.9 µM.

B9: binds [1].

B10: ICP27^103–110 (peptide)
peptide: SVWSRLGA
notes: HSV-1 ICP27, residues 103-110; the dash in the printed line is an alignment gap; also called WT ICP27^103–110 peptide; source: synthetic peptide (Peptide Protein Research Ltd)
In the case of B10, the Kd [2] is reported as 25 ± 7 µM.

B11: KSHV ORF57^100–110 (peptide)
peptide: NRYGKKIKFGT
notes: also called KSHV-ORF57^100–110 peptide; source: synthetic peptide (Peptide Protein Research Ltd)
In the case of B11, the Kd [2] is reported as > 100000 µM.
